Data: patent US10806913B2, “Methods for better delivery of active agents to tumors” (Sorrento Therapeutics, Inc., priority 2015, dated 2020)
Entries after “also recorded” stand apart in the source; their conditions may differ.

Assays:
[1] = Blood serum absorption rate after delivery to the skin; assay type: in vivo; conditions: skin administration compared to i.v., s.c. or i.d.; FIG. 14
[2] = In vivo near infrared imaging of lymphatic delivery after administration to the skin; design: species or system rats; conditions: fluorescently tagged, needle array placed dorsally, FIG. 11 and 12
Protocol: The ability to deliver the protein therapeutic Etanercept directly to the lymphatic system via administration to the skin was tested. Etanercept was fluorescently tagged for in vivo visualization using near infrared light as previous described, see Sevick-Muraca et al., J. Clin Invest., 124(3), 905-914 (2014), which is incorporated by reference herein for its teachings thereof. Etanercept was administered to the skin of rats by μlacing a delivery device comprising an array of needles dorsally on the rats.

[3] = Biodistribution across tissue types after delivery to the skin; assay type: in vivo, rats; conditions: skin delivery compared to i.v., s.c. or i.d., FIG. 13
Source text: The biodistribution of etanercept across multiple tissues types following delivery was investigated.

Etanercept
blood serum absorption rate [1]: approximately the same
lymphatic uptake and distribution to lymph nodes [2]: uptake by the lymphatic vasculature and subsequent distribution to primary and secondary lymph node tissues
lymphatic uptake and distribution to lymph nodes ([2]; listed as Etanercept): delivery directly to the lymphatic vasculature and lymph node tissues; also recorded: delivery to the axillary and mandibular lymph nodes
levels within the axillary and inguinal lymph nodes [3]: much higher levels
levels within the axillary and inguinal lymph nodes ([3]; listed as Etanercept): increased delivery to the lymph nodes
